This is an account of results in the DeepSol protein solubility set.

The data set in a line: soluble on expression in E. coli; label from the status in PepcDB or PDB records.
As for “MKTEHKQVVVVGAGPSGSTVSALLKSRGIDVVVIEKATFPRFSIGESLLPACMEVVELAGMTEAVKQHGFQFKDGAAFRRNGVYTHFDFTDKFTAGPGTTFQVQRASFDKVLADSAAEQGVDIRYQHELVSLAFEGKKSRLEVVGPDKQAYQIEADFVLDASGFGRVLPRLLDLEEPSCLPPRKAIFTHIEDHISPQEPEYDRNKILISVHPENHDVWYWLIPFSNGTCSFGVVGEPEFFEQYPEDKLAALQQLANEEPGLASLLRNAKYPNPVGELGGYSANVKRLATEHYALLGNAGEFLDPVFSSGVTIAMKSAQFAADCVVRQLNGEVVDWQEEYSERLMVGVNTFRTYVEGWYNGTLQDVIFYQAPNPRIKQMISAILAGYAWDTENPYVKQSEQRLSTLAELVRGEGFLEHHHHHH”, the “soluble on expression in E. coli” value was “soluble”.

Turning to “MKTIYLHHPITTDEWTDVKKVMALGFFDGVHLGHQAVIKQAKQIAEEKGLQTAVLTFDPHPSVVLSNIRKQVKYLTPLEDKAEKMANLGVDIMYVVRFTTQFSELSPRAFVDNYLVALNVKHVVAGFDYSYGKKGEGKMTELENYANGRFEVTIVDKQTAASDKISSTNIRRAITEGELEEANQLLGYP”, the “soluble on expression in E. coli” value is “not soluble”.

As to “MKTLHSLSEQLGGLLANQQQILASAESCTGGGVAYWVTEVAGSSAWFDRSFVTYSNEAKQEMLGVRQATLQQFGAVSEQTVEEMALGALLHSKATLAAAISGIAGPGGGSAEKPVGTVCFGFASVQGWLKVETCHFTGDREQVRQQAIAHVLQSLIEHLAADQVQNVN”, the “soluble on expression in E. coli” value is on record as “not soluble”.

Regarding “MKTLNNTHIGQIYYIHKIIGKNQAKLRDLGMISDKKITLISTDGENAIVKIDETRLALSSEFLEQIFVKEERSSEDIIGLAHLQVGQTGVVRMIDATSDIRRRLMDMGITRGTSVHLQKLAPLGDPLELRLRGYSLSLRKTDAEKIKVVLERLEHHHHHH”, the “soluble on expression in E. coli” value is on record as “soluble”.

Regarding “MKTLTDTDHIHTLIAEGEHQQQDFKFEISDARKIAKTLSAFANTDGGRLLIGVKDNGRIAGVRSEEEKYMIEAAAQLYCIPEIDYTLQTYIVEGKQVLVATIEENPHKPVYAKDENGKPLAYLRIKDENILATPIHLRVWQQSGSPRGELIRYTEREQLLLDLLEQGTLLSLNRYCRQTGISRRAAEHLLAKFVRYDIVEPVFENHKFYFRMKNELEHHHHHH”, the “soluble on expression in E. coli” value is “soluble”.

With “MKTPSLILMTIILCNLSIPINAQILTSRQQKEDFDTLYSLLHQVHPDLFVYQTQKEFEKKHDSIYCLLNKERNLSDFYFIVSPFVASVKDGHTNFTIPATQDRIDYLNNGGLTLPLRLKIVENKILVDFPLISCSIQENDEIICMNNINSQTILSQLYLLLGAEKGNAIKENQLTSYLSTLLWYKYNWGEKYDFTIKRGKKIWKESLNGISQADAFPVLKARLGKSLPQFVYTLSPDKQTATLQIMNLYQLPQLKQFCDSVFSVINREHVPNLVIDVRNNKGGSSAGVDMLLSYLSHDAYILYIKTDLKISSYSKRYNEQKHPETYEEIKNLPDGSLFAIRDSFVEGNRDKADIYKGSVTVLVNESTYSGASTFASAIKKSHAGKVLGETGCPTVYFGNYMSFTLPNSRLEYYISLNKFYE”, the “soluble on expression in E. coli” value is reported as “not soluble”.

Take “MKTVVIGAGLGGLLSAARLSKAGHEVEVFERLPITGGRFTNLSYKGFQLSSGAFHMLPNGPGGPLACFLKEVEASVNIVRSEMTTVRVPLKKGNPDYVKGFKDISFNDFPSLLSYKDRMKIALLIVSTRKNRPSGSSLQAWIKSQVSDEWLIKFADSFCGWALSLKSDEVPVEEVFEIIENMYRFGGTGIPEGGCKGIIDALETVISANGGKIHTGQEVSKILIENGKAAGIIADDRIHDADLVISNLGHAATAVLCSEALSKEADAAYFKMVGTLQPSAGIKICLAADEPLVGHTGVLLTPYTRRINGVNEVTQADPELAPPGKHLTMCHQYVAPENVKNLESEIEMGLEDLKEIFPGKRYEVLLIQSYHDEWPVNRAASGTDPGNETPFSGLYVVGDGAKGKGGIEVEGVALGVMSVMEKVLGLEHHHHHH”: the “soluble on expression in E. coli” value is on record as “soluble”.

For the sequence “MKTYDPATAVKTTGEFNGKKRFAVLLMGTDTGALNRTEKRGRTDTMILAVVNPAKKRYTLVSIPRDTMAQMVGSSSFTTEKINAAYEIGGARMSMDSVSALINVPIKYYAVVNMGGIMKMIRYVGGINIRPTLSFEYGGYVFKKGKLTHMGGAGALAYSRMRYDDPRGDYGRQERQRQVITTLIKKAVSVSSLTNLDSILTSVSSNVRTNLPFSALQQIALNYRGCANSSSSDYLHGYNAMIDDAAYQVQPTEELQRISDLVRTELGLEHHHHHH”, the “soluble on expression in E. coli” value is given as “soluble”.

On to “MKVDKETIEYVANLARLRLSEKEKEKLALDLESIISYVDKLNELDTSKIIPTDHVIPIKNVFRDDEVRDSYPKDKMLMNAPEKEDGCFKVPKVVE”, for which the “soluble on expression in E. coli” value was “soluble”.

Take “MKVIFNADDFGLTQGVNQGIVKAHLDGVVKSTTLMVGMPAEQHAVQLAKQLPDLKIGLHLRFTAGRPLTGERNLTDEHGVFTAYRDFWQRRDYQPEAIYHEAIAQVEHFLKLGLTLSHLDSHHHAHTHPQLAPIIYEVAKKYHVPLRDIGMAGEEAFGCRYHFTDFFYDQRLGIDPLMKHLLELKERFDLVEVMCHPAFVDPLLEKCSGYAKQREEELHILTSAQLIQLLVAHDIEITDYSALISAPLHSCV”: the “soluble on expression in E. coli” value is “not soluble”.

Regarding “MKVLRHGLFKDRRVFDENYIPPELRVRRGEAEALARIYLNRLLSGAGLSDVNMIYGSIGRVGIGKTTLAKFTVKRVSEAAAKEGLTVKQAYVNAFNAPNLYTILSLIVRQTGYPIQVRGAPALDILKALVDNLYVENHYLLVILDEFQSMLSSPRIAAEDLYTLLRVHEEIPSRDGVNRIGFLLVASDVRALSYMREKIPQVESQIGFKLHLPAYKSRELYTILEQRAELGLRDTVWEPRHLELISDVYGEDKGGDGSARRAIVALKMACEMAEAMGRDSLSEDLVRKAVSENEAASIQTHELEALSIHELIILRLIAEATLGGMEWINAGLLRQRYEDASLTMYNVKPRGYTQYHIYLKHLTSLGLVDAKPSGRGMRGRTTLFRLAPHLPADRLIEVVDNIIQAKMASGYE”, the “soluble on expression in E. coli” value was “soluble”.

“MKVMECQTYEELSQIAARITADTIKEKPDAVLGLATGGTPEGTYRQLIRLHQTENLSFQNITTVNLDEYAGLSSDDPNSYHFYMNDRFFQHIDSKPSRHFIPNGNADDLEAECRRYEQLVDSLGDTDIQLLGIGRNGHIGFNEPGTSFKSRTHVVTLNEQTRQANARYFPSIDSVPKKALTMGIQTILSSKRILLLISGKSKAEAVRKLLEGNISEDFPASALHLHSDVTVLIDREAASLRP”: the “soluble on expression in E. coli” value was “soluble”.

In the case of MKVRASVKRICDKCKVIRRHGRVYVICENPKHKQRQG, the “soluble on expression in E. coli” value is listed as “soluble”.

As to “MKVSTKDKIIESAVMLFNQKGFSGTSVREIAKSADVNVAHISYYFKGKGGLMEHLVSEFYEGYSKTLETAASNISTQSTQEQLLQLVFDILSYQHNHRQLTRFVYREVTIDSTLIREIMSTYLMKEKYIFQLIIEEGEKQREYLTLPLPHFILQLKSLLMMPYLQPQYISEVLYMQPHEPYFYKMYFEEIKIWIRSVFRTGDVALTN”, the “soluble on expression in E. coli” value was “not soluble”.

As to “MKVTDVRLRKIQTDGRMKALVSITLDEAFVIHDLRVIEGNSGLFVAMPSKRTPDGEFRDIAHPINSDMRQEIQDAVMKVYDETDEVIPDKNATSDNEESDEA”, the “soluble on expression in E. coli” value is “soluble”.

For “MKWGFRWYGAAGDAIPLKHIRQIPGITGVVGTLLNKLPGDVWTVAEIQALKQSVEQEGLALLGIESVAIHDAIKAGTDQRDHYIDNYRQTLRNLGKCGISLVCYSFKPIFGWAKTDLAYENEDGSLSLLFDQAVVENMQPEDMYQLIHSQSKGFRLPGWEEERLQQFQELKAMYAGVTEEDLVENLRYFLERVIPVCEEENIKMGIHPDDPPWEIFGLPRITKNLADLKRILSLVDSPANGITFCTGSLGADPTNDLPTMIREIGHRINFVHFRNVKYLGEHRFEETAHPSVAGSLDMAELMQALVDVGYEGVIRPDHGRAIWDEKAMPGYGLYDRAMGLTYIQGLYEATKAKQNRKLEHHHHHH”, the “soluble on expression in E. coli” value was “soluble”.

On to “MKWYTKYLQVYEKPFSEAPQEIVEEVRNKLKLLQSDNPLVTVSLIGYNEEKHLLASLWSLSEMKCKYPIEIIGTDNDSKDQTATIYEATGIPYVIEHQHSCGHARLCGLKRAKGKYHINIDSDTMYPPHYVETMVDALERPGIVAVSSLWSYIPDKEHSWVGLKIYEFIRDIHLWIQSIKRPELSVRGLVFAYRTDYARQVGIRTDIRRGEDGSLALRLKEYGNIYFIRKRKARAITGYGTISADGSLFNSFKVRAIYALKNIGRVFTRKKEYKDEDDNLIKS”, for which the “soluble on expression in E. coli” value is reported as “not soluble”.

With “MKYEVVITSGNSNQAPIGAFFKGDFVTLHLYGGSHTFENLQKDGFYILNTCSPYLIAKSVLDDAGDYEYLDNDGIKIPYLKDSYKIELIEIKSRKIVETKNEFGSSKLMIVEGKPIFEKILNCNTSAYNRADGAVVEMAVLYSRKNMISKEEINDEITRLMKIIKKVGSKNHIELAKKLGVLEHHHHHH”, the “soluble on expression in E. coli” value was “not soluble”.

For the sequence “MKYFLPLDVSLASAYLKATMSFKDPPTLQQLARRSLLKDEALTISALLNLPVQLFPPLFKDAFTSRQRKILSLMVAAWPFPVLPVGALGGIDHLETLKAVLDGLDLLMSQKDRPRWNLQVLDLGNAHQDFWDGWAGLLHEVCSQDVFGKNQPVGNHPIPGGKQTITIKMNLSLKYCRHSKYLNYLHWWAEQRKDGIQVICEKLEFTGPHSSIQELAIKSIHWDIYNLALIASCLGQMKNLQKLILMNIRRPPDLADLQEAHIVTEIFSEFSKLHKVHYLHVNNVYFLKERLDQMLRCFERPLETLAITHCRLSELDMRYLSQCPSIHQLKYLDMSYTTFKPSSHRFLGSLLERLTATLQTLKLECFHLTDFQIRDLLPGLSQCSQLTEVDIAMNEFSVVSLKKLLKHTANLTQLTLEKYPAPVEVYDDGHSVISDRFVQLCSELMNTLKGVRQAKQVYFVSMPCLRNYEFLIYNLKGLDSSEQLRRRGLSWALINGEQVSRDSLQL”, the “soluble on expression in E. coli” value is given as “not soluble”.

For the sequence “MKYKILLKGKQYFATINLFDGRIAMDVQVQFMAELSQLIDKLSFLSRDQLKIALKGYKPAEVHTIEFIGEHSETNVTAIASALYVTRGAVSKITKRLISRGLIVRYQKPDNQKEVYFKLTAQGQEVFEIHKKFTNYFMQRDEPIFRDSPDAVATTLAFLHQYNAFLDQKLTIKK”, the “soluble on expression in E. coli” value is recorded as “not soluble”.

In the case of “MKYQQLENLESGWKWKYLVKKHREGELITRYVEASAAQEAVNLLLALENEPVRVNVWIDRHMNPALLNRMKQTIRARRKRHFNAEHQHTRKKSIDLEFMVWQRLAGLAQRRGKTLSETIVQLIEDAEHKEKYATQMTTLKQDLQALLGKK”, the “soluble on expression in E. coli” value is “not soluble”.

“MKYQVLLYYKYTTIEDPEAFAKEHLAFCKSLNLKGRILVATEGINGTLSGTVEETEKYMEAMQADERFKDTFFKIDPAEEMAFRKMFVRPRSELVALNLEEDVDPLETTGKYLEPAEFKEALLDEDTVVIDARNDYEYDLGHFRGAVRPDIRSFRELPQWIRENKEKFMDKKIVTYCTGGIRCEKFSGWLLKEGFEDVAQLHGGIANYGKNPETRGELWDGKMYVFDDRISVEINHVDKKVIGKDWFDGTPCERYINCANPECNRQILTSEENEHKHLGGCSLECSQHPANRYVKKHNLTEAEVAERLALLEAVEV”: the “soluble on expression in E. coli” value was “not soluble”.

As for “MKYRIVRIELKSDDEVTLYLKSASRKPGVMAKADFSDPVKVIEFGLQMGMDLARRIEELMQFDAFLTVPYDYYSMNELKVGDVVEVEVRLAER”, the “soluble on expression in E. coli” value is “not soluble”.

Take “MLAGHLFAGVGEDVRLFKGITMTYGHNIELGDNAVVHDGVHLDDRGELVVGARASVSNGAHLYTHDHDVVDQTDVTNYRTEIGADARVTQGALVRAGVRVGENALVGSRSVVQGDVPAHHIAVGSPAESVRVKPGWLEHHHHHH”: the “soluble on expression in E. coli” value is listed as “not soluble”.
